# Measurements published in PMC12828418, “Structural analyses and substrate profiling of PPEP-3 provide new insights into the molecular basis of Pro-Pro endopeptidase specificity” (iScience, 2025).
# T1: PPEP-3 E154A/Y190F (proteolytically inactive double mutant of Pro-Pro endopeptidase 3 from Geobacillus … (Geobacillus thermodenitrificans strain …, UniProt A4INY2 27-235, E154A | Y190F))
# T1 construct: codon optimised for E. coli, cloned in pET28a via NdeI/XhoI; Zinc metalloprotease; for the substrate complex the catalytic Zn2+ was partly removed with EDTA and ortho-phenanthroline (occupancy about 40-50%); Surmise: pET28a with NdeI/XhoI adds an N-terminal His6 tag with a thrombin site; no cleavage of the tag is described, and 381 uM = 10 mg/mL (about 26 kDa) fits a kept tag; source: E. coli …
# T1 sequence (looked up): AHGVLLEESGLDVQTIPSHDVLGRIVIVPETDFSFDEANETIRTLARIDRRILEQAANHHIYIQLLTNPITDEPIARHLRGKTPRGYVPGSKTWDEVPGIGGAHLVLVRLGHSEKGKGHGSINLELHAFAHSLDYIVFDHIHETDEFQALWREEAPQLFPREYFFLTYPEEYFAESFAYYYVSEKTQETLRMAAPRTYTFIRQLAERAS
# B1: Ac-EPLPPPP-NH2 substrate peptide (peptide)
# peptide: Ac-EPLPPPP-NH2
# notes: synthetic substrate peptide of PPEP-3; P3-P3' are PLPPPP, cleavage between P1 and P1' prolines; also called PLPPPP (P3-P3'); source: synthetic peptide
# Target: T1, PPEP-3 E154A/Y190F (proteolytically …)
# Test: crystal structure; co-crystal of the Zn2+-depleted (EDTA and ortho-phenanthroline) double mutant with the substrate peptide; sitting drop vapour diffusion, Morpheus E9, 0.1 M bicine/Trizma base pH 8.5; 2.02 Å, space group P212121, four monomers in the ASU
# Settings: both partners purified
binder,measurement,value
B1,binding result,binds
